# Molecular target: the molecule itself
# Experiment: solution NMR structure (AlphaFold-NMR: AFsample models selected against NOESY and chemical shift data); homodimer models of CDK2AP1(61-115) scored against NOESY peak lists (including 3D X-filtered NOESY on a mixed sample of 50% [15N,13C]-labeled and 50% unlabeled CDK2AP1, recorded earlier, ref. 47; 124 further peaks picked here) and chemical shifts (BMRB 16808); validated by NOESY Double Recall
protein,measurement,value
"Cyclin-Dependent Kinase 2-Associated Protein 1 (residues 61-115) (domain or fragment, human, UniProt O14519 61-115, looked up, Cyclin-Dependent Kinase 2-Associated Protein 1 (CDK2AP1), human, residues 61-115, the homodimeric four-helix bundle; The methods mention newly assigned H58 - K62 resonances, so the sample may carry residues (perhaps of a tag) before residue 61; also called CDK2AP1; CDK2AP1_(61–115)) SKYAELLAIIEELGKEIRPTYAGSKSAMERLKRGIIHARGLVRECLAETERNARS",binding result,binds

# — paper PMC11875312, “Hidden Structural States of Proteins Revealed by Conformer Selection with AlphaFold-NMR” (Research Square, 2025)
